Drawing on a protein production outcome set (Wang et al. 2014), this text covers protein production for 15 sequences.

The data set can be described thus: label from the status in PepcDB records.
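Further: failed if final PepcDB status was selected cloned or expressed and not failed if soluble or beyond.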

Turning to “MSELIKHSSNFLAAISPDNDCSITATNDFEAMMSWLNGYKKKPINTSRNYAREVKRYLIWLSCQGLTLAQVKIEDVYEYFNLLERPTTEWIIPDKKTDKIYPTQLIKYGGLSNRSINYTHTVLGLFYSFLQDAGYLTKNPINLVKKASATTESEQYRHLDLPAWQTLWTWILGYENRVITEDQPAKMIKKASRYRWVFALLYHSGIRCAEAANALMSDLVRKNNTWSLKVTGKGNKMRLVTVNSLLLKELIHYRRSLLLTDYPSSHDDTPLIVSIQKNRQGSMTTRTLSSLIKEVTELVCADCQDDQITRQIETMTTHWLRHTNATHRFMAGASLETTQDELGHADPRTTRIYAKTSNEKRKLDAERLADLFDGIG”, the protein production entry is reported as “failed”.

For the sequence “MSELTAFGHSLSSGYEVVVIKPQSLSDTTLIVQALRADKAVILNLEHLDVAEAQRISDFAAGSTYAINGHQSRLGDGVFLFTPNVINIQERTAVPTPAGLV”, the protein production result is listed as “failed”.

For “MSEMIYGIHAVQALLERAPERFQEVFILKGREDKRLLPLIHALESQGVVIQLANRQYLDEKSDGAVHQGIIARVKPGRQYQENDLPDLIASLDQPFLLILDGVTDPHNLGACLRSADAAGVHAVIVPKDRSAQLNATAKKVACGAAESVPLIRVTNLARTMRMLQEENIWIVGTAGEADHTLYQSKMTGRLALVMGAEGEGMRRLTREHCDELISIPMAGSVSSLNVSVATGICLFEAVRQRS”, the protein production result is given as “not failed”.

“MSEMLYILQTVLLPIFIMIFLGYILQKKFTLDLNTLAKLNIYVFVPGFIFVKFYKTHFALSLLFYIIIFFVIYMFVLFLIGKLLSMFRKTDKGETTTLTNSLMFFNSGNYGVPVNDLVFKGDPLAMSVQVIVLSLQNIFTFSYGVFAIQSLHIGKLKALLGYFKMPVLYALLLAIILNYNHIPIPEFIWTPANYVADAMIAIALLMLGAQISNIKFSLKWSKSYAYVFIRLIIGPLIALVIIKIMGIEGIIAQTLFIASAMPTSVNSSVIAQEYDNHPELAAELVFLSTLLSAITVVIVIYMSKILF”: the protein production result was “failed”.

For the sequence “MSEMSPKEFKHILVGVDDSDDAQLAFRYAINRAKSDGAKLTIVSILEQDNMNVYEAMSKDFVHGQRKDLEEHVQQYQKLARDFGVTDVNAVVDEGDPGETIVKTVIPALKPDLLVIGSVAKHGVRKYFGSQAAYMAKHAPISVLVIR”, the protein production entry is recorded as “failed”.

Take “MSENMVNLPDSLYEDYSKLKLTSPSNASSSSSAPPPRLSVVAHPTVEMIIQWVCDIHKPKSYMSDFALHNLAYHRNDFEFLPSLLWESKNTVYIMLQEVFEAYRHLAGHISLRLFPHPLNPLRVYNVFLLFQSMACHPDTSRQFLRAKMPNYFYPLMDTGLIDKSDECMRLAALGVIAHMLKASEDGAVNRYLMESGVVGFCVKPIEFGSTETKKVALYILDKIMSTDQGLYYCCVLADRFYVIDELLKKVLFYLSNMVRPPSSLFSLVTGCYVKLSQNSRARNGIRRYTPFLLFDGTFSRLYAEDPVAANNRIQLLQNLDN”: the protein production entry was “failed”.

Regarding “MSENQKEVSPPQAISVKSEASSSIFSKPISTSSPAGLAAAQRVTPGKLSTLLLEMGPLAIRHITQTLCLDIPCFKDLSSSKQRRLIMSAMESGDKEKSVVFEKIGWGQWSAKRVDPANFDKELEATNFANAKVKDLISQESQRRKSNNSNSNSGGKVEMPMKVEHNITNIDGATTPPTAVASTTIPVNIKRSKSPLAAANVVYIDENALASEDEDEEFDEDDHHLHYQNKSRNSSNNFGKSSNGDPYSFGRRRSQVVFADSTPENIEHEIIAQKIRPLLRNRRRSSIKPHTPFISKLNTHQDSSYLSPNTTSTTTPSNNNSNSNQAKIDLEKLTATSEPTSRRASRLSVSKESSIRSTLFPNKNYLIVTTNPNSKATSVSTSPKLEEQMNVSSNPIVLSDKEKHRVASQHLNGESSPQLVPHSHHQPHSDTDEEDWESIGAASLRNNSLAPNIDSVASSTNGVVSPKPTNPSFTNSQNGDIEPPLQHDQQKHEQQPRNGEDNSAAFLLMSLKS”, the protein production result was “not failed”.

“MSEPVSSATVLAGGLMGASVFGLATGTDYGVVFGAFAGSVFYVATATNIGRIRLVAYFITSFIVGVLGAGLIGTKLAAITHYEKPLDALGAVIISAMCIKFLTFLNSQDLNTLFSILSRIRGGGSDGSK”: the protein production result is listed as “failed”.

In the case of “MSEQPSSVSGVKKVAIIPEIHISAPVLAKIVSYVAEESVDALKPFVKAGPLFKSAVYSKETLSCVRLDKSRYYMWWSTTHSIYYHFFTKSLEAKNPHALNAVLYKPIAYENFAAECYRATLWAELYGEYEA”, the protein production entry is listed as “failed”.

Consider “MSEREHWQRVYESKPSDAVSWFQAEATLSLDLIRRIGAPREAAIIDVGGGASTLVDGLLAEGFGDLTVLDLSDAALRVARNRLGARGEEVRWIAGDITGVDLPEATYDVWHDRAVFHFLTTAEARRAYVRQVMKAVRHGGHVIVATFAADGPTECSGLPVMRYDADELHAEFGSAFQLTEHRDEHHVTPAGRVQHFVYCHCLKRLLEHHHHHH”, for which the protein production result is given as “failed”.

On to “MSESTYPSVKDLTLEEKASLTSGGDSWHLQGVESKGIPGYMITDGPHGLRKSLASSTGETDLNNSVPATCFPPAAGLSSSWNPELIHKVGEAMAEECIQEKVAVILGPGVNIKRNPLGGRCFEYWSEDPYLAGHEAVGIVAGVQSKGVGTSLKHFAANNQETDRLRVDARISQRALREIYLPAFEHIVKTAQPWTIMCSYNRINGVHSAQNHWLLTDVLRDEWGFEGIVMSDWGADHDRVASLNAGLNLEMPPSYTDDQIVYAARDGRIAPAQLDRMAQGMIDLINKACAAMSIDGYRFDVDAHDEVAHQAAIESIVLLKNDDAILPLNADPAAARKIAVIGEFARTPRYQGGGSSHITPTKMTSFLDTLAERGIKADFAPGFTLDLEPADPALESEAVETAKNADVVLMFLGLPEAAESEGFDRDTLDMPAKQIALLEQVAAANQNVVVVLSNGSVVSVAPWAKNAKGILESWLLGQSGGPALADVIFGQVSPSGKLAQSIPLDINDDPSMLNWPGEEGHVDYGEGVFVGYRYYDTYGKSVDYPFGYGLSYATFEIADVAAAKTGANTATVTATVTATVTNTSDVDAAETVQVYVAPGKADVARPKHELKGFTKVFLKAGESKSVTIDLDERAFAYWSEKYNDWHVESGEYAIEVGVSSRDIADTVVVTLEGDGKSQPLTEWSTYGEWEADPFGAKIVAAVAAAGEAGELTKLPDNAMMRIFLNSMPINSLSTLLGEGGKKIAKFMVDEYAKLAK”, for which the protein production entry was “failed”.

On to “MSETITFPPLMTGEAAGPGQDPFDLACQKAELGVDAGLVVYELGTDVLRAALVLAPEVPLAKAMAMLPVCGVGFQNALGALAPPEVAVHLDWNGALRINGARCGRLRIAASTDDPDTQPDWLVVGLDLPLWPEGDGGETPDETALYAEGCADVAAPRLLESWARHCLHWINRWDEGELETIHGEWRGLAHGMGEARTEAGRSGTFLGVDEDFGMLLRDETTTHLIPLTTVLVQD”, for which the protein production result is “not failed”.

Take “MSETTQTSQSLYQALWNSADVLRSKMDANDYKSYLLGMVFYKYLSDKMLFFVAETMEEETESLDEALAVYRKYYEDEETHEDLLAVITDEMSYAIHPDLTFTALVERVNDGSFQLEDLAQGFRDIEQSDELYENLFEDIDLYSKKLGATPQKQNQTVAAVMKELAVLDVAGHAGDMLGDAYEYLIGQFATDSGKKAGEFYTPQPVAKLMTQIAFLGREDKQGFTLYDATMGSGSLLLNAKRYSRQPQTVVYFGQELNTSTYNLARMNMILHGVPIENQFLHNADTLDEDWPTQEPTNFDGVLMNPPYSAKWSASSGFMDDPRFSPFGKLAPKSKADFAFLLHGYYHLKQDNGVMAIVLPHGVLFRGNAEGTIRKALLEEGAIDTVIGLPANIFFNTSIPTTVIILKKNRTNRDVYFIDASKEFDKGKNQNIMTDAHIEKILNAYKSREDIDKFAHLASFEEIVENDYNLNIPRYVDTFEEEEVEPLTEIVAKINQTNATIESQTASLLDMLGQLHGTTPEADEELKAFVKAFKGLEHHHHHH”: the protein production entry is “failed”.

“MSETVTQVNETTQQIVRSRTCGLKDFYIALVQSNTATAYTAGTPVKLARAIKAKIDEKWTSEKIYSDDNTEEVITSYEGTDVELEINALAPQDRVILFGQLYEKGFLRKSSDDRAPEVAVGWRERKLNGKYEFKWLYVGKFAEGISEEASTLEHHHHHH”: the protein production entry was “not failed”.

As for “MSEVLTRGFRFRPADEEVTDYLMRKTQSPEFSCFIKTIDLYDKDPWVLGHVRDPCYNHYEWYYFVKKNPLGNEYLDKPRLNGFEHPRLKWDVLKQIHDALSSGQNVPPSVFTYGFRFHPTDQELLSLYLTPKAHSPDFSCFIRERESYMPWSHGFLNMLDLLFTRTVNGTTL”, the protein production entry is on record as “failed”.
